Measured values: article PMC4421793, “A secretory kinase complex regulates extracellular protein phosphorylation” (eLife, 2015)

B1: Fam20A (63–529), recombinant (domain or fragment, human, UniProt Q96MK3 63-529, looked up)
chain: DPGTIVHNFSRTEPRTEPAGGSHSGSSSKLQALFAHPLYNVPEEPPLLGAEDSLLASQEALRYYRRKVARWNRRHKMYREQMNLTSLDPPLQLRLEASWVQFHLGINRHGLYSRSSPVVSKLLQDMRHFPTISADYSQDEKALLGACDCTQIVKPSGVHLKLVLRFSDFGKAMFKPMRQQRDEETPVDFFYFIDFQRHNAEIAAFHLDRILDFRRVPPTVGRIVNVTKEILEVTKNEILQSVFFVSPASNVCFFAKCPYMCKTEYAVCGNPHLLEGSLSAFLPSLNLAPRLSVPNPWIRSYTLAGKEEWEVNPLYCDTVKQIYPYNNSQRLLNVIDMAIFDFLIGNMDRHHYEMFTKFGDDGFLIHLDNARGFGRHSHDEISILSPLSQCCMIKKKTLLHLQLLAQADYRLSDVMRESLLEDQLSPVLTEPHLLALDRRLQTILRTVEGCIVAHGQQSVIVDGPVEQ
notes: human Fam20A, residues 63-529; Cloned into a modified pI-secSUMOstar vector in which the SUMO tag was replaced by an MBP tag and a TEV site; also called recombinant Fam20A; source: Hi5 insect cells, purified from the conditioned medium (MBP tag removed by TEV protease digestion and gel filtration)
B2: Fam20C (93–584), recombinant (enzyme, human, UniProt Q8IXL6 93-584, looked up)
chain: DFSSDPSSNLSSHSLEKLPPAAEPAERALRGRDPGALRPHDPAHRPLLRDPGPRRSESPPGPGGDASLLARLFEHPLYRVAVPPLTEEDVLFNVNSDTRLSPKAAENPDWPHAGAEGAEFLSPGEAAVDSYPNWLKFHIGINRYELYSRHNPAIEALLHDLSSQRITSVAMKSGGTQLKLIMTFQNYGQALFKPMKQTREQETPPDFFYFSDYERHNAEIAAFHLDRILDFRRVPPVAGRMVNMTKEIRDVTRDKKLWRTFFISPANNICFYGECSYYCSTEHALCGKPDQIEGSLAAFLPDLSLAKRKTWRNPWRRSYHKRKKAEWEVDPDYCEEVKQTPPYDSSHRILDVMDMTIFDFLMGNMDRHHYETFEKFGNETFIIHLDNGRGFGKYSHDELSILVPLQQCCRIRKSTYLRLQLLAKEEYKLSLLMAESLRGDQVAPVLYQPHLEALDRRLRVVLKAVRDCVERNGLHSVVDDDLDTEHRAASAR
notes: human Fam20C, residues 93-584; also called recombinant Fam20C; source: Hi5 insect cells, purified from the conditioned medium (MBP tag removed by TEV protease digestion and gel filtration)

Key:
[1] = target: B2; assay: SEC; two purified proteins (1 mg/ml each) incubated on ice for 2 hr, then Superdex 200 in 25 mM Tris-HCl pH 7.4, 150 mM NaCl; fractions on SDS-PAGE, Coomassie; conditions: both partners purified
[2] = target: B2; assay: cell-based or functional assay
[3] = target: the molecule itself; assay: SEC; one purified protein alone on Superdex 200 in 25 mM Tris-HCl pH 7.4, 150 mM NaCl; oligomeric state judged from the elution profile

| stoichiometry N [1] | Km of Fam20C (2 μg/ml) for ENAM (173–277) S191A with excess Fam20A (40 μg/ml); 14.6 μM without Fam20A, a ∼2.5-fold decrease [2] [µM] | kcat of Fam20C (2 μg/ml) for ENAM (173–277) S191A with excess Fam20A (40 μg/ml); 0.04 s^−1 without Fam20A, a 19-fold increase [2] [s⁻¹] | Binder | stoichiometry N [3] |
| --- | --- | --- | --- | --- |
| 1 | 5.6 | 0.76 | B1 | – |
| – | – | – | B2 | 2 |
